What all share (test): SEC
Test [1] concerns the target Bile Salt Hydrolase from Enterococcus faecalis, wild type (Enterococcus faecalis).
Test [2] concerns the target EfBSH E269A (Enterococcus faecalis).
For test [3], the target named is EfBSH E269D (Enterococcus faecalis).
Test [4] concerns the target EfBSH E269Q (Enterococcus faecalis).
Test [5] addresses EfBSH R207A (Enterococcus faecalis).

Turning to “Bile Salt Hydrolase from Enterococcus faecalis, wild type (enzyme)”, the stoichiometry N in test [1] came to 4.

In test [2], EfBSH E269A (enzyme) registered a stoichiometry N of 4.

In turn, EfBSH E269D (enzyme) came in with a stoichiometry N in test [3] of 4.

In turn, EfBSH E269Q (enzyme) gave a stoichiometry N in test [4] of 4.

In test [5], EfBSH R207A (enzyme) registered a stoichiometry N of 4.

As a reminder, the stoichiometry N is a count of units in the complex or per binding partner.
